The numbers were not newly measured in patent US7754242B2, “Inhalable sustained therapeutic formulations” (Alkermes, Inc., priority 2002, dated 2010), which cites them from elsewhere.

Like-named read-outs stand apart in the source and are kept apart here.

For data set [1] the following is noted: healthy volunteers; inhaled.
For data set [2] the following is noted: primates; dry powder formulation via pulmonary delivery.
The conditions of data set [3]: human subjects; dry powder formulation via pulmonary delivery.

As to “insulin: Insulin given by pulmonary delivery (dry powder formulation, inhaled), literature reports”, in data set [1], the “Time to half-maximal action (glucose infusion rate)” value was “about 30 minutes”. Besides, the results for the “Time to peak insulin level” value in data set [2] and in data set [3] were “about 30 minutes” and “about 20 minutes”, respectively.
